How the values were obtained:
[1] = target: T1, D210A-APE1 (Homo sapiens, UniProt P27695 1-318, D210A); assay: fluorescence anisotropy; 140 mM K+; 20 mM Tris pH 7.4, 50 mM KOAc (or 140 mM K+ / 50 mM Li+), 0, 1 or 10 mM Mg(OAc)2, 1 mM DTT, 22 °C, 100 nM FAM-DNA, APE1 0-5000 nM; conditions: protein: recombinant; tags: His (pET28HIS-hAPE1); label: 5' FAM; intramolecular parallel G4 in K+; unfolded in Li+
[2] = target: Δ33-D210A-APE1 (Homo sapiens, UniProt P27695 34-318, D210A;del1-33); assay: fluorescence anisotropy; 10 mM Mg2+, 50 mM K+; 20 mM Tris pH 7.4, 50 mM KOAc (or 140 mM K+ / 50 mM Li+), 0, 1 or 10 mM Mg(OAc)2, 1 mM DTT, 22 °C, 100 nM FAM-DNA, APE1 0-5000 nM; conditions: protein: recombinant; tags: His (pET28HIS-hAPE1); label: 5' FAM; intramolecular parallel G4 in K+; unfolded in Li+
[3] = target: T1, D210A-APE1; assay: as above; conditions: protein: recombinant; tags: His (pET28HIS-hAPE1); label: 5' FAM; intramolecular parallel G4 in K+; unfolded in Li+
[4] = target: APE1 (WT) (Homo sapiens, UniProt P27695 1-318); assay: fluorescence anisotropy; 0 Mg2+, EDTA, 50 mM K+; 20 mM Tris pH 7.4, 50 mM KOAc (or 140 mM K+ / 50 mM Li+), 0, 1 or 10 mM Mg(OAc)2, 1 mM DTT, 22 °C, 100 nM FAM-DNA, APE1 0-5000 nM; conditions: protein: recombinant; tags: His (pET28HIS-hAPE1, Addgene 70757); label: 5' FAM; intramolecular parallel G4 in K+; unfolded in Li+
Sequence of APE1 (WT) (P27695 whole entry): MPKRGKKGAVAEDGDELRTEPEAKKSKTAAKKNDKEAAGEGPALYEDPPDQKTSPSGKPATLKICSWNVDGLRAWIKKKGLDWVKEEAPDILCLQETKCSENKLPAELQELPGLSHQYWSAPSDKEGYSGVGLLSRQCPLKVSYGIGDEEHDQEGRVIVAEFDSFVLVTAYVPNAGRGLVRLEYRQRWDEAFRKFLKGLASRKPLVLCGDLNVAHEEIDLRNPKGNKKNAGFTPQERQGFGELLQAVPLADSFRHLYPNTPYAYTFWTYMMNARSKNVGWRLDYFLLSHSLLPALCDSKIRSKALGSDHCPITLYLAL

T1 sequence (P27695 whole entry D210A): as the sequence (P27695 whole entry) above, with D210A counted along it
Sequence of Δ33-D210A-APE1 (P27695 34-318 D210A): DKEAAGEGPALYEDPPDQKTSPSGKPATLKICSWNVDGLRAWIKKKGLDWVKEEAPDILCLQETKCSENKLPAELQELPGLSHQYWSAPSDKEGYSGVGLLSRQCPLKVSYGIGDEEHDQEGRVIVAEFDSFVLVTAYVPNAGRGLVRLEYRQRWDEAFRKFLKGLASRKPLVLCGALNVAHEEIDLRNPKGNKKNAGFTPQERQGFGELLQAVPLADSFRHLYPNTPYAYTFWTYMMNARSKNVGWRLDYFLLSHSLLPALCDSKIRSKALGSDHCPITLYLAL

In the case of CGGGGCGGGCCGGGGGCGGGGT (structured_DNA) [VEGF-4], the Kd [1] is reported as 20 nM, the Kd [2] is reported as 230 ± 40 nM and the Kd [3] is reported as 55 ± 4 nM. For the same binder, the Kd [4] was 190 ± 50 nM.
